Variants at the floor of the assay were thinned out.
B1: TPR 5TU (parent)
chain: GGAUCUUCUCGAUCUAACAAAAAAGACAAAUCUGCCACAAAGCUUGAGAGCAUCUUCGGAUGCAGAGGCGGCAGCCUUCGGUGGCGCGAUAGCGCCAACGUUCUCAACUAUGACACGCAAAACGCGUGCUCCGUUGAAUGGAGUUUAUCAUG

Variants of: B1
Assay: polymerase ribozyme fitness, log enrichment relative to wild type (log ratio); higher = more active; in vitro selection for triplet polymerase activity
In short: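 One round of in vitro selection, in triplicate, was applied to PCR-built, transcribed mutant libraries of each subunit of a heterodimeric triplet polymerase ribozyme. The steps were annealing with a biotinylated primer, partner subunit and triplets, incubation frozen at −7 °C, gel excision of extended constructs, streptavidin-bead capture and RT-PCR. Fitness is the logarithm, base 2, of genotype enrichment over wild-type enrichment from inverse-variance-weighted replicate averages of Illumina-sequenced inputs and outputs, keeping genotypes with ≥10 input reads and ≥1 read per output.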

Variant | polymerase ribozyme fitness (log ratio)
A23G C103A | -3.88
A26G C32A C35A G59U U90C C93G U146G | ≤ -4.2
A24U C57G G92U A147U | -0.341
A24U A52U C95U | -1.25
A23U A47G U55A | ≤ -4.2
A24C C35U C87G A98U C103U C125G | ≤ -4.2
A26U C36A U56G C108A A137C | ≤ -4.2
A23G C76G C87U A119G G140U | ≤ -4.2
A23U C76G C93G | ≤ -4.2
A24C A66C G71C G84U | ≤ -4.2
G25A G68U U78C A91G C114G | ≤ -4.2
A26C C123G G141U | -2.47
A26C G58C A60U G71C C93G | ≤ -4.2
A24C A29G G46U C85U C129G C131A G141C | ≤ -4.2
A24U A39U U56A G94A | -3.21
A23U U44G C76A C79U U82A G86A G143A | ≤ -4.2
G25C G48U U55A C85U A147C | -3.98
A24U G141A | 0.58
A24G A28U U55A G140A | ≤ -4.2
A24G C27U U31A A47C U77C C85U U102C U144C | ≤ -4.2
A24U A40C A47U C69U C93U C118U U145A | -4.16
A24G C27U G42C U55G | ≤ -4.2
A24C G46A C57G C75G A89G C96G | ≤ -4.2
G25A C54A G58A G84A A120G G126U | -3.36

Variant | polymerase ribozyme fitness (log ratio)
A24U C38A | 0.851
A24U C87G C96U | ≤ -4.2
A24U C114G | -3.34
A23U C79U U101G G141C | ≤ -4.2
A24U C36G U111C C116A | ≤ -4.2
G25A U44G C85U A106C | ≤ -4.2
A24C U55A A60G A97U | ≤ -4.2
A24C U44A G50U U55A | ≤ -4.2
A23U C43U A73U C85A A97C C105G G140U | ≤ -4.2
A26U C38A | -2.37
A24G C79A C96A G141A | ≤ -4.2
A23C U53C G58U G94C A115U C129U | ≤ -4.2
A23G A40U C76U C87U A89G G133C | ≤ -4.2
G25U A98U | -3.03
G25U C116U A122U | -4.04
G25A U33C C35A A73C A91G G117A C118U | ≤ -4.2
G25C C99U | -3.13
A24G U90C C123G G136C A147G | ≤ -4.2
A26G C87G U127A C129G | ≤ -4.2
A26U A40U A120U | -2.33
G25U A49U G50C U61A C95U | -3.07
A23G C27G A40G U61A C131G G143U | ≤ -4.2
A24U G34C U56A G84A G133A | -3.92
A24C G34C C35A A122G U134A G143C | -4.11

Variant | polymerase ribozyme fitness (log ratio)
A26C G50A G67A G70C G83U C87U U90C | ≤ -4.2
A23U G48A C87G U104C | ≤ -4.2
G25C A41C C96G A110G U148C | ≤ -4.2
G25C A91U C96U C99A C108A A138G | ≤ -4.2
A24U C93U A98G C132U A142G | -4.17
G25A C35U G50C G88U C118G U151G | ≤ -4.2
A23C U53A C57U C96G C103G | ≤ -4.2
A24G C38U | ≤ -4.2
A26C U55G G59C | -2.72
A24U G25C A37U G65C U90A C116G C131A G141C | ≤ -4.2
A23C G58A C96U A106G | ≤ -4.2
A24C G59U A73G A150U | -3.13
A26U C27A A29U G34A U61A C76G | ≤ -4.2
A24C G48A G84U A106U A142U | ≤ -4.2
A26G A97G | -3.72
A26C U33A G92C C105G | ≤ -4.2
A26C G92U A106G | -0.538
A24U U44G A66C G143A | -4.09
A24G G83C | -3.62
A23G U127G | ≤ -4.2
A26U C54G | -3.33
A24U A39G C51U C57A C85U C129G | ≤ -4.2
A23U G34A U53G G74A U139A | ≤ -4.2
A23G C54G G80C C105U C108U A113C C132G | ≤ -4.2

Variant | polymerase ribozyme fitness (log ratio)
A24C U31C U33G C76G C85U C125G | ≤ -4.2
A23G A47C C103G A122G U145A | ≤ -4.2
A24G G92C | -2.81
A23U C27U U33G G42U G86U U101A G152A | ≤ -4.2
A23G G34U G141C | ≤ -4.2
A26G C36G C57A G94U A142U G152C | ≤ -4.2
A26G A41G A60U U90G C99A G143U U151C | ≤ -4.2
A23G A24U G58A A60G C85G U101A G128A U130C U144G | ≤ -4.2
A23G C54A | -3.28
A24U A47C G48C C85G A91G | ≤ -4.2
A23C U56A G81A U90A C95G G143U | ≤ -4.2
A24U C57A G83U A97U U146A | -1.51
A26U A41C A49U U53A C95U U130A C132A G143A U148C | ≤ -4.2
A23U A28G C32G C85U G128U C129A U146G | -4.14
A24U U61A C93U U101C | -3.93
A24U A30C G48U A60G G94C U109G A113U | ≤ -4.2
G25U G50U A73G U101G | -2.68
G25A U44G U77A G83U U104A | ≤ -4.2
G25C A37C C76A U101G U148G | ≤ -4.2
A23U A28G C87U U145A | ≤ -4.2
A23U A52C | ≤ -4.2
A24U A39G U82A C95G U135A | -3.89
A23G C27U C93G C103G A150G | ≤ -4.2
A26C C131U | -0.797

Variant | polymerase ribozyme fitness (log ratio)
G25C C99U C114G C118U | ≤ -4.2
A24U C35A U45G A47C G48C A64C C93G | ≤ -4.2
A23U A106G A138U | ≤ -4.2
A26G G50C A91G G117A C125U G140A G143C | ≤ -4.2
G25U C43U U53A C87A A91C G140A | ≤ -4.2
A24G A120U | -3.9
A24G U55A | -3.22
G25U G58U G84A | -2.21
A23G U134A | ≤ -4.2
A23U A24U U56A A106C A150U | -3.89
G25U A49U C93U A119C | -3.95
A26G C85G G88C C125U G136A | ≤ -4.2
A26G A40C G68U | ≤ -4.2
A23C G42C U77A G80C U101G | ≤ -4.2
A24C U56C A64C C96U | ≤ -4.2
A23C G81A A91U G143A | ≤ -4.2
A23U U53A U55G C95U C103U C114U G126A G136U A150U | ≤ -4.2
A23G A41G U55A U90C C96G C99A | ≤ -4.2
G25C C54U C57U C75U G126A | -2.79
A24G A60G G68A G86C G124C | ≤ -4.2
A26U A29U G62U C99U C125U U134A | -4.08
A23U G42U G58C G65U C75G G141U | ≤ -4.2
A24G G71C G83C C87U C96U C149A | ≤ -4.2
A23U U56A C93A U101G U127A A137U U139A C149A | ≤ -4.2

Variant | polymerase ribozyme fitness (log ratio)
A26C U61C C85A U151G | ≤ -4.2
A24G A30G A52C U53G G59A C87U G92U G128A U139A | ≤ -4.2
A26U A30C A49G G92C | ≤ -4.2
A23U U56A | -3.49
A26G G68A C85G A120C | ≤ -4.2
A26G A37U C75U G92A G133C G143U | ≤ -4.2
A23C C72U C87A C96U C105U | ≤ -4.2
G25U C51U A73U C76U G83U C95U C96U G100U C118G A122G | ≤ -4.2
G25U G59U C93G C96U U134C | ≤ -4.2
A24C U31C G68U U78C C85U | ≤ -4.2
A24G A26U C38U A47U C85U C116U C125A | ≤ -4.2
A23G G59U C75G U90C C129A | ≤ -4.2
G25U G50U C76A C85U G86C G133C | ≤ -4.2
G25A A49G C95U | -2.94
A24C G141C | -3.54
A23U G74U A91U | ≤ -4.2
A24U U44A C57G G74U C76A G100A A138C | ≤ -4.2
G25A A41U C43U C54U U55A G70A G92A G133U U139G | ≤ -4.2
A26C C87A | ≤ -4.2
A24C G48C C118G | ≤ -4.2
A24U C27G C38U C87U A91G C93G G133U | ≤ -4.2
A23U A73U G88C | ≤ -4.2
G25A C75A A91U | ≤ -4.2
A24U A98G | 0.444

Variant | polymerase ribozyme fitness (log ratio)
A26C C27U C57A G68C C131G | ≤ -4.2
G25U G84U G117A | -3.67
A24U G84C C114U G140U | ≤ -4.2
A24U C85A | -1.22
A24U C85G | -2.77
G25U A41G | -0.833
G25U A41U | -3
A24C G58A G112U A122G | ≤ -4.2
A24U C36U A60G G80A G94C | -3.57
A24C A52G G84C G88U C95U C96U U102G | ≤ -4.2
A23G C27A C32U G50C A73G C85G | ≤ -4.2
G25U A29U C38U G70C | ≤ -4.2
A26C U56C G65A C75U A91U C96U | ≤ -4.2
A23G C76U C85A | ≤ -4.2
A23G G46A C87U C132G | ≤ -4.2
A23U G80A A150G | ≤ -4.2
A23C C35U G65A A66U C76A U78G | ≤ -4.2
A23U C118U | -3.62
A23G C85A | -2.98
A26U A60C G80C A91U A121C | ≤ -4.2
A24U A66C A73G C79G C87A G88U C116A C118A | ≤ -4.2
G25U G62A | -2.84
A26G U53A | -4.06

From the RNAGym collection of RNA variant scans (doi:10.1073/pnas.2313332121)
